Publication PMC7749166 (Communications Biology, 2020)
Like-named read-outs stand apart in the source and are kept apart here. Bridge positions count the residues as written; N and C are the ends. Square brackets hold non-standard residues; d marks the D form. Ends that are not written are not given here. dCha = N[C@H](CC1CCCCC1)C(=O)O; Orn = NCCC[C@H](N)C(=O)O

Assays:
C5aR [1] = conditions: cited from earlier work
Source text: GPCRs represent the largest human membrane protein family, having overall more than 800 members, and constitute a “control panel” of the cell[27]. […] However, the peptidic nat ...

C5aR [2] = conditions: cited from earlier work; remark: listed apart in the source
Source text: G-protein-coupled receptors (GPCRs) are a large family of versatile and dynamic cell surface receptors expressed in almost all tissue types. Upon ligand binding to highly conserved orthosteric binding sites, GPCR pass from a quiescent to an active state, initiating signal transduction. The conservation of orthosteric binding sites throughout the GPCR superfamily and a poor understanding of the mechanism underneath their activation cycle are two key factors currently hampering the development of specific drugs towards a specific sub-type in a GPCR family. […] We simultaneously recorded FD-based AFM height images and adhesion maps (Fig. 3b, c) and extracted FD curves located on C5aR having their native orientation (based on our height criterion) (Fig. 3d). Generally, force-probing methods such as FD-based AFM measure the strength of single bonds under an externally applied force. Described first by the Bell-Evans model, an external force stressing a bond reduces the activation-energy barri ...

[3] = molecular target: T1, wild type C5a anaphylatoxin chemotactic receptor 1 (C5aR), reconstituted in DOPC/CHS liposomes (human, UniProt P21730 1-350, sulfonated tyrosine residues (Y11 and Y14)); test: AFM dynamic force spectroscopy (FV- and FD-based AFM, Friddle-Noy-de Yoreo fit); C5a tethered by its N-terminal His6-tag to a tris-NTA-Ni2+ PEG27 tip; C5aR (wild type, mutant, or wild type incubated with PMX53) in DOPC/CHS liposomes adsorbed on mica; imaging buffer 20 mM HEPES, 300 mM NaCl; ≈24 °C; Kd calculated from ΔGbu = kbT × ln(0.018 Kd); conditions: both partners purified
T1 construct: C5a anaphylatoxin chemotactic receptor 1 (C5aR), human; wild type; Receptors lie in both orientations in the bilayer; also called C5aR^WT; wtC5aR; source: HEK-293S GnTI- cells (BacMam), purified (Ni-NTA, anti-Flag M1 resin, SEC), reconstituted in DOPC/CHS liposomes; not shown: His8, C-terminal, kept
T1 sequence (looked up): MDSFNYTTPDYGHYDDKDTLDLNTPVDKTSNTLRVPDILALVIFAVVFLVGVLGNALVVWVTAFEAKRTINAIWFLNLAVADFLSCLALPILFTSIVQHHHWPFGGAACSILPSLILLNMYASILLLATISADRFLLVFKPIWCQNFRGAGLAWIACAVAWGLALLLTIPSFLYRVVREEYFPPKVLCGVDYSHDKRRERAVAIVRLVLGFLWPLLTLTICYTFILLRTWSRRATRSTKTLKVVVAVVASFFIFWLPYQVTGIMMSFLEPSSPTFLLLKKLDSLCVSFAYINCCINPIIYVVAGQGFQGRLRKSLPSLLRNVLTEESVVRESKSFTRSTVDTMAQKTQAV

[4] = molecular target: T2, C5aRΔTyr mutant (Y11F and Y14F), reconstituted in DOPC/CHS liposomes (human, UniProt P21730 1-350, Y11F | Y14F); test: as above; conditions: both partners purified
T2 construct: C5a anaphylatoxin chemotactic receptor 1 (C5aR), human; lack of tyrosine sulfonation validated by western blot; The methods print the mutations as 'Y11F and F14F'; the results print Y11F and Y14F; also called C5aR∆Tyr; source: HEK-293S GnTI- cells (BacMam), purified, reconstituted in DOPC/CHS liposomes
T2 sequence (looked up): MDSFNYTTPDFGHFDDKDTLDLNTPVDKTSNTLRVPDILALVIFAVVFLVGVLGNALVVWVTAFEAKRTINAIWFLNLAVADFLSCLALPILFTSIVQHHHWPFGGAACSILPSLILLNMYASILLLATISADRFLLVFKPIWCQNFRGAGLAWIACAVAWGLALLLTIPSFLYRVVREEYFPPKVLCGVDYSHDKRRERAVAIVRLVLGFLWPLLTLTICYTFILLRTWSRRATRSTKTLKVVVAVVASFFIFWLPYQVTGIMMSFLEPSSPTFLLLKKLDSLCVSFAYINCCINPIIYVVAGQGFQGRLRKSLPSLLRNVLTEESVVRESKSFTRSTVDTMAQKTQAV

[5] = molecular target: C5aR^WT incubated with PMX53 (effector site blocked) (human) (UniProt P21730); test: as above
[6] = molecular target: T1, wild type C5a anaphylatoxin chemotactic …; test: AFM dynamic force spectroscopy (FV- and FD-based AFM, Friddle-Noy-de Yoreo fit); PMX53-Gly3-Cys coupled by its Cys to a PEG27-maleimide tip; C5aR (wild type or mutant) in DOPC/CHS liposomes adsorbed on mica; imaging buffer 20 mM HEPES, 300 mM NaCl; ≈24 °C; Kd calculated from ΔGbu = kbT × ln(0.018 Kd); conditions: both partners purified

Cc1ccc(NC(=O)[C@H]2CCCN(C(=O)c3c(C)cccc3F)[C@H]2c2ccc(NC3CCCC3)cc2)cc1C(F)(F)F [avacopan]
antagonist action (C5aR [1]; recent structural studies): allosteric modulators with highly reversible action | therapeutic efficacy (C5aR [1]; to advance into late-stage clinical trials): sufficient therapeutic efficacy

CCCCn1c(-c2ccccc2)nc(-c2ccccc2)c1CN(Cc1ccc2c(c1)OCO2)Cc1ccc2c(c1)OCO2 [NDT9513727]
antagonist action (C5aR [1]; recent structural studies): allosteric modulators with highly reversible action

Ace-Phe-[{Orn}-Pro-{D-Cha}-Trp-Arg] (sidechain bridge or staple) [PMX53, cyclic antagonist peptide that mimics the C-terminal structure of the endogenous C5a ligand]
affinity towards the effector site (C5aR [2]): nanomolar affinity | antagonist action (C5aR [1]): potent orthosteric antagonist with insurmountable action

B1: complement C5a anaphylatoxin with N-terminal His6-tag (ligand, human, UniProt P01031 678-751, looked up)
chain: TLQKKIEEIAAKYKHSVVKKCCYDGACVNNDETCEQRAARISLGPRCIKAFTECCVVASQLRANISHKDMQLGR
notes: C5a anaphylatoxin, the 74-amino acid cut product of complement C5; numbers count on: C5a itself (R74 is its C-terminal residue); Tethered by its His6-tag to a tris-NTA-Ni2+ PEG27 AFM tip; C5a from R&D Systems is named only for the GTPgammaS assay; also called C5a ligand; endogenous C5a ligand; not shown: His6, N-terminal, kept
Kd [3]: ~4.5 nM | Kd [4]: ~20 mM | Kd [5]: 800 mM | equilibrium force Feq [5]: 29 pN | residence time τ0.5 [5]: 0.2 ms

B2: PMX53-Gly3-Cys (Cys-Gly3-Phe-[{Orn}Pro-{D-Cha}-Trp-Arg]) (peptide)
chain: CGGGF[Orn]P[dCha]WR
modifications: lactam 6-C; not fully specified; printed as Cys-Gly3-Phe-[{Orn}Pro-{D-Cha}-Trp-Arg]
Kd [6]: 4.7 nM
